Data reported in patent US20170037092A1.

Biological target: HLA-A*02:01 (human)
Assay: UV-ligand exchange ELISA

B1: … (peptide)
peptide: SLTETIEGV
modifications: not checked
- peptide exchange yield: 20 to 50%
